Test [1] has as its target T1, preformed tau aggregates (Homo sapiens, UniProt P10636). In words: spreading of tau pathology in hTau[P301L] mice. The class given is in vivo. The conditions noted are these: tau aggregates pretreated 6 hours, injected in hippocampus of hTau[P301L] mice; nine weeks; vs vehicle. The protocol: In an alternative transgenic murine model preformed tau aggregates are pretreated with the non-natural molecule (SEQ ID NO: 22) and after an incubation of 6 hours, this preformed mixture is injected into the hippocampus of young hTau^[P301L] mice (see Kent BA et al (2017) Brain Behay. 8(1) e00896), which haven't developed any tau pathology yet. Nine weeks after injection mice are sacrificed. Immunohistochemical (IHC) quantification of AT8-positive inclusions in the ipsilateral (injection site) and contralateral hippocampus (opposite site) is conducted. Preformed tau aggregates pretreated with a buffer serve as a control vehicle. We observe that the level of tau pathology spread to the contralateral hippocampus is reduced when the non-natural molecule depicted in SEQ ID NO: 22 is applied as compared to the vehicle.

The target of test [2] is T1, preformed tau aggregates. Kind of test: tau biosensor seeding assay. It counts as cell-based. The conditions noted are these: 20 hours after transfection; for fraction of cells with green spots (induced tau aggregation) / fraction of cells with red spots (exogenous preformed tau aggregates): single concentration 500 nM on cells, 200 nM preformed tau aggregates. The protocol:
The 33 different non-natural molecules (with a final concentration of 10 μM) were mixed with preformed (sonicated) tau aggregates (with a final concentration of 4 μM). The preformed tau aggregates are labeled with a far-red atto-633 dye to monitor the efficiency of cellular uptake and degradation. After an incubation of 6 hours the resulting non-natural molecule—tau aggregate mixture was transfected in tau biosensor cells (described in Holmes et al (2014) Proc Natl Acad Sci USA. 111(41): E4376-E4385). The tau biosensor cell line is a monoclonal FRET biosensor HEK293T cell line stably expressing both the tau repeat domain (RD) fused to the fluorescent protein CFP and the tau repeat protein fused to the fluorescent protein YFP. Without the addition of preformed tau seeds, the biosensor cells stably express diffuse tau (soluble). However, exposure to exogenous preformed tau aggregates induces tau aggregation, generating a FRET signal with the CFP-YFP pair, intensifying the fluorescent signal in the tau inclusions. The FRET signal allows to distinguish the tau aggregate formation from the monomeric background. The use of phospholipids (e.g. lipofectamine—Source: Thermofisher) for the transfection of exogenous tau aggregates maximizes the aggregate inducing capacity.
The final peptide concentration of the non-natural molecules applied on the cells is 500 nM and the final concentration of preformed tau aggregates is 200 nM. 20 hours after transfection cells were fixed and two readouts were used to quantify the activities of the non-natural molecules: • determination of the fraction of cells with green spots: these are the cells that have induced tau aggregation. • determination of the fraction of cells with red spots: these are the cells that are positive for preformed tau aggregates.
In this example non-natural molecules of the invention were generated based on the sequences of capping peptides CAP1_TR and HET (sequences depicted in column 2 in Table 2). A tau biosensor seeding assay was performed with a concentration range of peptides. Thus, the assay is the same as described in example 2 but now a range of concentrations of capping peptides and non-natural molecules comprising the capping peptides were used to incubate with preformed tau aggregates. FIGS. 6 and 7 depict the final concentration of the peptides and derived non-natural molecules applied on the cells (see FIGS. 6 and 7).

Test [3] has as its target T1, preformed tau aggregates. Kind of test: Microscale Thermophoresis (MST) with preformed tau aggregates. It counts as binding. The method, then: To measure the affinity of the capping peptides, and non-natural molecules derived thereof, with full length tau, we performed Microscale Thermophoresis (MST, Monolith NT.Automated) experiments. Briefly, atto-633-labeled tau monomers or atto-633-labeled preformed tau aggregates were mixed with a concentration range of capping peptides, and non-natural molecules derived thereof, and MST measurement were performed.
(In general: MST reads how a fluorescent partner responds to local heating, with and without ligand.)

The target of a further test is T2, Aβ aggregates (Homo sapiens, UniProt P05067).
T2 construct: mixed with preformed, sonicated Aβ aggregates (2 μM)
In words: Aβ biosensor screening assay. The conditions noted are these: for relative number of cells positive for induced Aβ aggregation (seeding capacity of Aβ seeds): 100 nM Aβ aggregates on cells, concentration range of capping peptide; for capping activity of single capping sequence across all hetero-tandem peptides: analysis of all tandems containing the single sequence (FIG. 22). It counts as cell-based. The protocol: Hetero-tandem capping peptides depicted in Table 5 were dissolved in DMSO, filtered and mixed with preformed, sonicated Aβ aggregates (2 μM). This mixture was incubated for approx. 4 hours and transfected into Aβ biosensor cells. Aβ biosensor cells stably express soluble Aβ-mCherry and Aβ aggregation can be induced by transfecting preformed Aβ aggregates in these cells (FIG. 17). The final concentration of Aβ aggregates on the cells is 100 nM and a concentration range of capping peptides was used. In other words, the condition in which no seeds are added is shown as 0, while the condition in which 100 nM Aβ aggregates are added (without capping peptides) is shown as 1.

Another test addresses T3, Aβ fibrils (Homo sapiens, UniProt P05067).
T3 construct: mixed with preformed, sonicated Aβ aggregates (2 μM)
Kind of test: in vitro Aβ seeding aggregation assay (Th-T). The class given is biochemical. The conditions noted are these: fibrils 10 μM preincubated with 50 μM capping peptide approx. 4 hours; 10% added to 10 μM monomeric Aβ. The method, then: Capping peptides from Table 6 were freshly dissolved in DMSO (stock concentration 1 mM) and filtered before the assay. 1 μL peptide capping solution was mixed with 19 μL preformed, sonicated Aβ fibrils (stock concentration 10 μM). As such, this mixture contained 10 μM Aβ fibrils and 50 μM capping peptide and was incubated for approx. 4 hours. Next, freshly dissolved monomeric Aβ was prepared by separation on a column. This monomeric Aβ (final concentration 10 μM) was mixed with 10% of the Aβ fibrils-peptide mixture and Th-T was added to monitor aggregation.

The target in a further test is T4, Sup35-NM aggregates (Saccharomyces cerevisiae, UniProt P05453).
T4 sequence (P05453 1-253 limits assumed): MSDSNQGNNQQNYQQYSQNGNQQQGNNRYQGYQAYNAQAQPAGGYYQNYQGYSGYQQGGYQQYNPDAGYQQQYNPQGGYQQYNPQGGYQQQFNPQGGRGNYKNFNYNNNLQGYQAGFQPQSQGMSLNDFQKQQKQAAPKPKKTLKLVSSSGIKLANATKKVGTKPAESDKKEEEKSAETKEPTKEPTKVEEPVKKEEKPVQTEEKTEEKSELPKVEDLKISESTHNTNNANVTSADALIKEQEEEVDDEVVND
In words: hetero-dimeric tandem capping peptide screen, NM biosensor cell line. It counts as cell-based. The note with it: 625 nM capping peptide, 50 nM NM seeds, 24 hours.

Another test concerns the target Tau aggregates (Homo sapiens, UniProt P10636). Kind of test: hetero-dimeric tandem capping peptide screen, Tau biosensor cell line. It counts as cell-based. The note with it: 625 nM capping peptide, 50 nM Tau seeds, 24 hours.

T3 sequence (P05067 672-713 limits assumed): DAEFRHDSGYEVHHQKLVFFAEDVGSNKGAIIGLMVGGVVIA
T2 sequence (P05067 672-713 limits assumed): as above
Sequence of Tau aggregates (P10636 1-441 isoform P10636-8): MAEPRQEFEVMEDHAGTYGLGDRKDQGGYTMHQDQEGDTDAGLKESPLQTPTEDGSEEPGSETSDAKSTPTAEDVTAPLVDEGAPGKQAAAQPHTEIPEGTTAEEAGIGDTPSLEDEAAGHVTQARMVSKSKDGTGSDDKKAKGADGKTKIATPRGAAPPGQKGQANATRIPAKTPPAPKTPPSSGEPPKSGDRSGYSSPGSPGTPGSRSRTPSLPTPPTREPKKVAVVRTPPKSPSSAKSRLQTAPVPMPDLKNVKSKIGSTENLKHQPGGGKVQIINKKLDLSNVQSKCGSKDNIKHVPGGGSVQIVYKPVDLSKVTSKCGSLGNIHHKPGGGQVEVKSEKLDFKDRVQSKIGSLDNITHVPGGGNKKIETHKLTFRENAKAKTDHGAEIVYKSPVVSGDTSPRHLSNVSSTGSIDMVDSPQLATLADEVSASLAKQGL
T1 sequence (P10636 1-441 isoform P10636-8): as above

For “WQIVYKGSVWMINKGSGSNLLRLTGW (HET_JAV) [HET-JAV]”, the “level of tau pathology spread to the contralateral hippocampus (AT8-positive inclusions, IHC)” value with preformed tau aggregates [1] is on record as “reduced”. Besides, in the test with preformed tau aggregates [2], the “fraction of cells with green spots (induced tau aggregation)” value (“fraction of cells with green spots” for short) was “reduced tau aggregation” and the “fraction of cells with red spots (exogenous preformed tau aggregates)” value (“fraction … (exogenous preformed tau aggregates)” below) is “reduction in exogenous preformed tau aggregates”.

For the substance WQIVYKGSVWMINK [HET], the “affinity for tau aggregates compared to tau monomers (MST)” value at preformed tau aggregates [3] (aggregates versus monomers) is recorded as “higher affinity for tau aggregates compared to tau-monomers”. The “affinity for tau aggregates (MST)” value at preformed tau aggregates [3] (atto-633-labeled preformed tau aggregates, concentration range) is “measured affinities are significantly higher compared to CAP1_TR variants”. On preformed tau aggregates [2], the “fraction of cells with green spots” value was “reduced tau aggregation” and the “fraction … (exogenous preformed tau aggregates)” value is listed as “reduction in exogenous preformed tau aggregates”.

For the substance “MVGGPVGSKLKFFA (Capping peptide) [AbCap 14]”, the “relative number of cells positive for induced Aβ aggregation (seeding capacity of Aβ seeds)” value (“relative number of cells positive” below) with Aβ aggregates is on record as “effect at the highest concentrations”.

With RWQIVYKEGSRWQIVYKR [CAP1_TR], in the test with preformed tau aggregates [2] (concentration range of peptide, tau aggregates pre-treated 6 hours), the “fraction of cells with red spots (exogenous tau aggregates; tau aggregate degradation)” value was “slight reduction in cells positive for red spots in the highest concentration”.

Turning to “MVWGVVGSKLKFFA (Capping peptide) [AbCAP_2]”, the “seeding capacity of preformed, sonicated Aβ fibrils (Th-T aggregation)” value (“seeding capacity of preformed” for short) with Aβ fibrils was “clear effect on the seeding capacity”.

For the substance MVWGVV (Capping peptide), in the test with Aβ aggregates, the “capping activity of single capping sequence across all hetero-tandem peptides” value was “score well at the highest concentrations”.

As for “WQIVYKGSVWMINKGSGSVKKDQGSKFERQ (HET_CMA2) [HET-CMA2]”, in the test with preformed tau aggregates [2], the “fraction of cells with green spots” value was “reduced tau aggregation” and the “fraction … (exogenous preformed tau aggregates)” value was “reduction in exogenous preformed tau aggregates”.

Consider “VQWINKGSWQIVYK (Capping peptide) [CAP_1A]”, for which the “specificity for tau aggregation (a-specific effects in Sup35-NM biosensor line)” value (from here on “specificity for tau aggregation”) with Sup35-NM aggregates was “specific for inhibiting tau aggregation”. The “fraction of cells with induced aggregates, normalized” value (“fraction of cells … normalized” below) with Tau aggregates is listed as “most performant peptides”.

On to “VQWINKGSVQMVYK (Capping peptide) [CAP_1E]”, for which the “specificity for tau aggregation” value with Sup35-NM aggregates is recorded as “specific for inhibiting tau aggregation”. The “fraction of cells … normalized” value in the test with Tau aggregates was “most performant peptides”.

Take “GWVVIAGSKLKFFA (Capping peptide) [AbCAP19]”: the “seeding capacity of preformed” value in the test with Aβ fibrils is on record as “clear effect on the seeding capacity”.

In the case of “WQIVYKGSVWMINKGSGSKFERQKILDQRFFE (HET_CMA1) [HET-CMA1]”, in the test with preformed tau aggregates [2], the “fraction of cells with green spots” value was “reduced tau aggregation” and the “fraction … (exogenous preformed tau aggregates)” value is recorded as “reduction in exogenous preformed tau aggregates”.

Regarding “MVWGVVGSKLWFFA (Capping peptide) [AbCAP3]”, in the test with Aβ fibrils, the “seeding capacity of preformed” value is recorded as “clear effect on the seeding capacity”.

As for KLWFFA (Capping peptide), the “capping activity of single capping sequence across all hetero-tandem peptides” value with Aβ aggregates is recorded as “score well at the highest concentrations”.

With “EQIINKGSFQIVYK (Capping peptide) [CAP_4D]”, the “specificity for tau aggregation” value with Sup35-NM aggregates is recorded as “specific for inhibiting tau aggregation”. Besides, the “fraction of cells … normalized” value in the test with Tau aggregates is on record as “most performant peptides”.

Turning to “MVGGVKGSKWVFFP (Capping peptide) [AbCap 11]”, the “relative number of cells positive” value in the test with Aβ aggregates is recorded as “effect at the highest concentrations”.

For the substance “MVWGVVGSKWVFFA (Capping peptide) [AbCap 4]”, the “seeding capacity of preformed” value with Aβ fibrils is reported as “clear effect on the seeding capacity”. Besides, in the test with Aβ aggregates, the “relative number of cells positive” value was “concentration-dependent effect”.

The values above are taken from patent US20230181748A1, “MEANS AND METHODS FOR THE TREATMENT OF PATHOLOGICAL AGGREGATION” (priority 2020, published 2023).
